A protein production outcome set (Wang et al. 2014)

Experiment: label from the status in PepcDB records
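Note: failed if final PepcDB status was selected cloned or expressed and not failed if soluble or beyond.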

| Sequence | protein production |
| --- | --- |
| MIQVGDRFYDQAIVQTMGARAAEAVGLSDRPELSFAVCLSDPAEFLALLLAIREAGASVLPIHPSTPRAAARRLAIDLGCHRLVTDELAVEDLGAEDPGPGGLLQTTSGTTGEPKRIARSWAEIDREIDSYVATFVAPQDMTPLIACPITHSYGLICGVLVALRRGQVPHILGTANPKYLIARLRQTRQPLLYSSPAMLHAIARLLPAGEMIHAAMTSGTLLPDQWLMTIRARTTHLFQQYGCSEAGCVAINPNLSASGDMGAPLPHLRVEAGDTDQPREIVVHVGDRAIRTADLGYTKADGTLVFVGRLDDTINVSGLNVYPKEVEDVVMAMPGVTDAVVFRRLDSLAGERVAVAFSAEHSIAPADLRDWCIKNLAAHQVPMETVRLPRLPRQANGKISRREIAALHAEGRLELLAEETAA | failed |
| MKKLINRVDDVLSEQLQGFAKAHPEINLHPSSFYVTRHDAPVKGKVALLSGGGSGHEPMHAGFVGKGMLDGACPGEIFTSPTPDKMYDCAKAIDSGEGVLMIVKNYTGDVLNFETATELLHDEGVKIATVLVDDDVAVKDSLYTAGRRGVANTVLMEKLLGAAAERGDTLDDLVKLGHQINNNGFSIGIALQACTVPAAGKPSFTLPENEMEFGVGIHGEPGIDRRPFTSLNDTVDAMFNTLIENGHYQRTIRSWDRVNGDWIEETQEKQPLKSGDRVIALVNNLGATPLSELYGVYHRLALCCENFGLNIERSLIGSYCTSLDMSGISITLLKVDDALLTLWDAPVATPAMTK | failed |
| MFIASFITGPFQTNCYLLAREQGSECVIVDLGMGAEEFLGDALRTHHLVPVAIAVTHGHIDHIGSARQVGDEYGIPVLCPRDDRHLLSDPMAGLSDFARPLIEQWYGSTTLREPEQVVDVEPFSHHQFANLDLEFLHAPGHTPGCSMIRTIDAEFGPIVMSGDVVFAGSIGRTDMPGGDPAQMSYSLSDVVWSLDDSTHVLPGHGGPTTMANERLTNPFLGRR | failed |
| AIAAIAEKAKGKEWTSTEKSREEDQQASNQPNSIALPGTSAKRTKEKMSVKGSKVLCPKKKAEHTDNPRPQKKIPIPPLPSKLPPVNLIHRDILRAWCQQLKLSSKGQKLDAYKRLCAFAYPNQKDFPSTAKEAKIRKSLQKKLKVEKGETSLQSSETHPPEVALPPVGEPPALENSTALLEGVNTVVVTTSAPEALLASWARISARARTPEAVESPQEASGVRWCVVHGKSLPADTDGWVHLQFHAGQAWVPEKQEGRVSALFLLPASNFPPPHLEDNMLCPKCVHRNKVLIKSLQWE | failed |
| MSEQNWTDTGRFDNKAAEWDANAIRAALADAVARAIIAHMPVGKPANALEFGCGTGLVTTRIAPHCLQLTAVDSSREMLRMLGEKIAASAIANVTPLHLDFSRPEEAAGLDRDYDFVYSSMTLHHIPDTASFLRELIGHMSPGGALAIADLDAEDGLFHNDATEKVHHGFDRTELQALLESAGFAGVSFMTAHIIEKKNREGNLKNYPVFLVTAVKPKA | failed |
| SIAILVIMHGESTASSMVNVANTLLDCNHAVAINMGLEDRVQDILVQAVEIANKIDKGKGILILTDMGSILTFAKVIRDATGKEVKAIDMVSTPIVIEATRKALTPEMTLEKLYFNIIESIKKHYGDMEVTYAEKDNGGRY | not failed |
| MSAYIIETLIKILILVAVFSALGGFATYIERKVLAYFQRRLGPCYVGPFGLLQVAADGIKLFTKEDIIPQGANKFIFTLAPIIAMVSAFVSMAPIPFFPNFTLFGYEIKPLISDINIGFLFFLAVGSAGIYAPILAGLASNNKYSLIGSARATIQLLSFEVVSTLTILAPLMVVGSLSLVEINHYQSGGFLDWLVFKQPLAFVLFLIASYAELNRTPFDLLEHEAEIVAGYCTEYSGLKWGMFFLAEYAHLFAFSFVISIVFFGGFNAWGFIPGGIAILIKAGFFVFLSMWVRATYPHVRPDQLMDMCWKIMLPLALLNIVLTGIIILI | failed |
| MKLTHSFIKQQARLGLNFFRYLLARMNHDRVNVNAGYLAYITLLSMVPMLTVLLSILSSFALFANAGEVIQDFVITHFVPAAGEVVKTALIEFVANTGKMTAVGGAFLFVAAIMLISNIDKNLNYIWRVQQKRRAVFSFSMYWMILTLGPILVGASIAATSYITSLKILDNEALSGVYNLFLRWLPFVLSYCAFVGLYLLVPNKKVHWQHAMLGALIAAILFELSKKGFAAYITQFPSYQLIYGALAAIPILFVWVYLCWLIVLVGAEVTAALGEREHWSDSQDMLHFAPLPKNEKE | not failed |
| MAEHPIQGLMETAMESIKEMVDVNTIVGDAVQAPDGTVIIPISKVTFGFAAGGGEFASCCSVDEKGEDSSDDSSKPEIKFPFAGGSGAGVSINPVAFMVVGQGQIKLLPVNINSSLEKILDLIPEIIEKTKDSVKKNLKVKKEIKPGNGESCAKSSKEDENELEHHHHHH | not failed |
| MSRNYKEDQTNEVEALDSIYCGDMEILATEPHHKFQIPIATEEYSSEEPEKGLACKLVFTFTATYPDGAPVVEIEEPENFEDMFETRLLEHLQKTIEENLGMEMIFSLVSSAQEWLNERWDEHKFHQEELREQKLREIEEEERKKFEGTRVTVESFLKWKLEFEESTGIAAKREKNNVSKKQTGRELFMCDNTLNDSDIKFLLEAGENIENVKIDETLFQDIGELDLDDDDDEDWVPGADDDDD | failed |
| MTVKAMALNTNQLFAYLNRGDIAEFKFSPLFTTLFFPNVATFSTQNIMLDTLDIEEVTMSAFCSPMVGSQVQRDKGYETSTIKPGYMKPKHEIDPTKTIMRMAGEDPAQLNDPTYRRMRLITGNMRRQINAIKARVEWLAVNAVTTGKNIIEGEGIERYEIDWKIPEKNIIEQADGKKWSEQDKETHYPIYDIELYADQAGCPANVMIMGAEVWRTLRSFKKFRELYDLSRGSESAAELACKNLGEVVSFKGYLGDLALIVYSGKYTDSDGTEKYFLEPDLLVLGNTNNKGLVAYGAIMDQEAVRTGATQNMFYPKNWIEDGDPAIEYVQTHSAPQPVPADIRKFVTVKIA | not failed |
| MNFSESFKLSGLLCRFSPDGKYLASCVQYRLVIRDVTTLQILQLYTCLDQIQHIEWSADSLFILCAMYRRGLVQVWSLEQPEWHCKIDEGSAGLVASCWSPDGRHILNTTEFHLRITVWSLCTKSVSYIKYPKACQQGLTFTRDGRYLALAERRDCRDYVSIFVCSDWQLLRHFDTDTQDLTGIEWAPNGCVLAAWDTCLEYKVLLYSLDGRLLSAYCAYEWSLGIKSVAWSPSSQFLAIGSYDGKVRLLNHVTWKMITEFGHPATINNPKTVVYKEAEKSPLLGLGHLSFPPPRAMAGALSTSESKYEIASGPVSLQTLKPVADRANPRMGVGMLAFSSDSYFLASRNDNVPNAVWIWDIQKLKLFVVLEHMSPVRSFQWDPQQPRLAICTGGSKVYLWSPAGCVSVQVPGEGDFPVLGLCWHLSGDSLALLSKDHFCLCFLETKERVGTAYEQRDGMPRT | failed |
| MIEDTLHAIAQQDYPAESYEVLLINDGSKDNTLEIAENLAKIYPCIKIVNVPKGMGGKGKSRTLNNGLPHAKGELIVVYDADSTPEPDCVRLLAQTLLADKKLVAVNGKVRTRNWQDSILTRFIAIEFIFFQWIFQGGRWQRFELSTLMGTNYVIWRDALETLGGFDEKSLVDDTEMSFRIFIGQKRIKWVPYAIGWQQDPPSLSVFVKQRSRWTQGNFYVTRKYLPVALRTPFPIGIEILNNIMCYILFVPALFWSHITLTLGLLDIAGISVPGPFTLLWGLSFCLYVAQMWFTLSLEKVKPELYFYSVLSYVSYSQIFLFIVFKAAFDMLKNKIQGNSLQWYKTERSKEKK | failed |
| MMNNSEGLKSFQQSLADLPQWVSERLLQQINQLTNYEPVIGIMGKTGVGKSSLCNALFAGDISPVSDVAACTREPLRFRLQVGDRYITLMDLPGVGESGARDTEYAALYREQLPRLDLVLWLIKADDRALTVDEHFYHQVIGEVYRHKVLFVISQSDKAEPTSGGGQLSTAQKQNISRKICLLHELFQPVHPVCAVSVRLQWGLKVMAERMIKCLPREATSPVVSQLHPSFRTTVVREQARSDFGETVGAVLDSISAFPLIPAPVRAVIQAVRTTVVSVARAVWDFFF | failed |
| MTRTTAVGFDRVTKGYGDVRAVDGLTLALHPGETVALLGPNGAGKSTTLDLLLGLRRPDAGTVHVFGGEPREAVVAGRVGAMLQSGGLMDEVTVAELVRLGCALHPRAYPAADVLARAGLTKIADRRVDKLSGGQAQRVRFALATAGDSDLIVLDEPTTGMDVTARQAFWATMREQADQGRTVLFATHYLEEADAIADRVLVLHRGRLLADGTAAEIKARAGTRRISFDLDGGPDASPDASPDGSRNGTVDEATLRALPHLTALDVSGRTVRIQSADADATVYALYGLGLYPRNLEVAGLGLEQAFVALTAAEEAKQP | failed |
